Assay results from patent US20230034660A1, “PEPTIDES THAT ENHANCE NMDA RECEPTOR FUNCTION AND USE THEREOF” (University of Pittsburgh - Of the Commonwealth System of …, priority 2019, published 2023).
Each block holds one molecule with its values, some of them ahead of it.

Columns and labels:
NMDAR = NMDAR EPSCs in DCN cartwheel cells in brain slices, ZX1 potentiation; format: cell-based, mice; settings: nimodipine 20 μM at least 20 minutes prior to recordings; ZX1 100 μM
[1] = biological target: ZnT1 in mouse brain slices (mouse) (UniProt Q60738); assay: cell-based or functional assay
GluN1/2A receptors = biological target: T1, GluN1/2A receptors (Rattus norvegicus, UniProt Q00959); assay: Zinc inhibition of glutamate-evoked currents in tSA201 cells transfected with GluN1/GluN2A; format: cell-based; settings: vehicle, 1 mM glutamate steady-state current, read-out: IC50 for zinc block in vehicle treated cells
T1 construct: expressed in transfected cells; host or cells: human embryonic kidney tSA201 cells
Procedure: Human embryonic kidney tSA201 cells were maintained in DMEM supplemented with 10% fetal bovine serum and 1% GlutaMAX, as previously described (Glasgow and Johnson, 2014). Cells were plated in 35 mm petri dishes with three 15 mm glass coverslips treated with poly D-lysine (0.1 mg/ml) and rat-tail collagen (0.1 mg/ml) at a density of 1×10^5 cells/dish. Eighteen to 30 hours after plating, the cells were co-transfected using FuGENE 6 Transfection Reagent with cDNA encoding enhanced green fluorescent protein (eGFP), for identification of transfected cells, and WT rat NMDAR subunits GluN1-1a (GluN1; GenBank X63255) and GluN2A (GenBank M91561 in pcDNA1). GluN1-1 a and eGFP were expressed using a specialized pCl-neo vector with cDNA encoding eGFP inserted between the CMV promoter and the GluN1 open reading frame (Yi et al., 2018). […]
Whole-cell voltage-clamp recordings from tSA201 cells were performed 18-30 hours after transfection. […] Whole-cell currents were recorded using an Axopatch 200A patch-clamp amplifier (Molecular Devices), low-pass filtered at 5 kHz, and sampled at 20 kHz in pClamp10.7 (Molecular Devices). In all recordings from tSA201 cells, series resistance was compensated 85-90% and an empirically determined −6 mV liquid junction potential between the intracellular pipette solution and the extracellular recording solution was corrected. […]

[2] = biological target: T2, GluN2A subunit of NMDAR in rat cortical cultures (rat, UniProt Q00959 23-1464); assay: proximity ligation assay in rat cortical cultures (FIG. 3A legend)
T2 construct: whole, on cells; Endogenous protein in neurons, detected with a mouse anti-GluN2A antibody in the PLA
T2 sequence (Q00959 23-1464): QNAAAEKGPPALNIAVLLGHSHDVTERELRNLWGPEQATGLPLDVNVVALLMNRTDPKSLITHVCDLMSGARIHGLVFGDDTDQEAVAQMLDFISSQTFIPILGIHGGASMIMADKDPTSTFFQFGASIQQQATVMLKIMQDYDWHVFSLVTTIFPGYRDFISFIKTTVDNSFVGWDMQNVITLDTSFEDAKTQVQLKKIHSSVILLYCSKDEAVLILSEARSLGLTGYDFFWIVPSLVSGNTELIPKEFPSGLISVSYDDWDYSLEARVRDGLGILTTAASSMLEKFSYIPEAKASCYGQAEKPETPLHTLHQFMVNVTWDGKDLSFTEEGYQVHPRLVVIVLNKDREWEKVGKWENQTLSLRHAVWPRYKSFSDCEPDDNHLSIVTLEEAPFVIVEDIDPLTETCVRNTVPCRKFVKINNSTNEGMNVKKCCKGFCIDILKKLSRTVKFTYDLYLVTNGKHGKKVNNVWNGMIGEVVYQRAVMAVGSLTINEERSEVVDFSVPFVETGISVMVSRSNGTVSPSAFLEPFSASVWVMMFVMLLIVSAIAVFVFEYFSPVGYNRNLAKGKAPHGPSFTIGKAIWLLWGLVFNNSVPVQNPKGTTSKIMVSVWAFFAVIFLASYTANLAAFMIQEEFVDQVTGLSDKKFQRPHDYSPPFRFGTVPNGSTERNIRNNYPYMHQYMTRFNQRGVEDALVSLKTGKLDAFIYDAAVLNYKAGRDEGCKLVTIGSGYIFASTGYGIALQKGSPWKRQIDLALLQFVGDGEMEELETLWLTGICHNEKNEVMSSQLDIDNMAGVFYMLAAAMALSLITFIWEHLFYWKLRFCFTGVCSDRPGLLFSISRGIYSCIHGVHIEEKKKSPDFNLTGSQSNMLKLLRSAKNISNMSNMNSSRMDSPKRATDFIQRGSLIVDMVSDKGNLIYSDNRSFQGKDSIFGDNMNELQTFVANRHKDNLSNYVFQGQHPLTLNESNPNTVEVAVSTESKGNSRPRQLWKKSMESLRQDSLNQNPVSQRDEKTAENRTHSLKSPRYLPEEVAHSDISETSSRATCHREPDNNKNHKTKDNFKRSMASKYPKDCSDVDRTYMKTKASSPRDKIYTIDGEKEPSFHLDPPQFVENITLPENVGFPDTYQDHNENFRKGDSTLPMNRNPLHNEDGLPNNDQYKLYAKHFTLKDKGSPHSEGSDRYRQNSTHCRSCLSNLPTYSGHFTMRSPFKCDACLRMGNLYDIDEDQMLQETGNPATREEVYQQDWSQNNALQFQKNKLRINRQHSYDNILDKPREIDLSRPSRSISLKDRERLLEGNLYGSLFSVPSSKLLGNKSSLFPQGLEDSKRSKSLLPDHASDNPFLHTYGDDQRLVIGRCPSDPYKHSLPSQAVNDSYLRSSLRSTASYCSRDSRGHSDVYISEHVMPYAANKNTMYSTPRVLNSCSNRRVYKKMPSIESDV

T1 sequence (Q00959 23-1464, other chains not shown): as the sequence (Q00959 23-1464) above

Molecule: COCCOC(=O)C1=C(C)NC(C)=C(C(=O)OC(C)C)C1c1cccc([N+](=O)[O-])c1 (centres unmarked) [Nimodipine, reference compound]
ZX1 potentiation of NMDAR EPSCs in nimodipine-treated slices (NMDAR): 23.6±6.9%

Average effect of ZX1 on L2/3 PN NMDAR Lev-EPSCs amplitudes normalized to control, auditory cortex slices incubated with scramble [1]: 159%
Average effect of ZX1 on L2/3 PN NMDAR Lev-EPSCs amplitudes normalized to control, auditory cortex slices incubated with the peptide [1]: 99%
ZX1 potentiation of NMDAR EPSCs, DCN cartwheel cells, 100 Hz, slices treated with N2AZ [1]: 1.95%
ZX1 potentiation of NMDAR-mediated synaptic currents, DCN cartwheel cells, 20 Hz, slices treated with N2AZ (3 µM) [1]: 19.4%
ZX1 potentiation of NMDAR-mediated synaptic currents, DCN cartwheel cells, 20 Hz, slices treated with scN2AZ (3 µM) [1]: 47.3%
Molecule: GluN2A subunit of NMDAR in mouse brain slices (from UniProt P35436 23-1464) (receptor)

Molecule: [Zn+2] [zinc]
IC50 (GluN1/2A receptors): 21.8 ± 2.09 nM

binding result [2]: binds
B1: ZnT1 in rat cortical cultures (other, UniProt Q62720 1-507, looked up)
chain: MGCWGRNRGRLLCMLLLTFMFMVLEVVVSRVTASLAMLSDSFHMLSDVLALVVALVAERFARRTHATQKNTFGWIRAEVMGALVNAIFLTGLCFAILLEAVERFIEPHEMQQPLVVLSVGVAGLLVNVLGLCLFHHHSGEGQGAGHGHSHGHGHGHLAKGARKAGRAGGEAGAPPGRAPDQEPDQEETNTLVANTSNSNGLKADQAEPEKLRSDDPVDVQVNGNLIQESDSLESEDNRAGQLNMRGVFLHVLGDALGSVIVVVNALVFYFSWKGCTEDDFCVNPCFPDPCKSSVELMNSTQAPMHEAGPCWVLYLDPTLCIIMVCILLYTTYPLLKESALILLQTVPKQIDIKHLVKELRDVEGVEEVHELHVWQLAGSRIIATAHIKCEDPASYMQVAKTIKDVFHNHGIHATTIQPEFASVGSKSSVVPCELACRTQCALKQCCGTRPQVHSGKEAEKAPTVSISCLELSENLEKKPRRTKAEGSVPAVVIEIKNVPNKQPESSL
notes: whole, on cells; Endogenous protein in neurons, detected with a rabbit anti-ZnT1 antibody in the PLA; also called zinc transporter 1
